For the test, the target named is HLA-A2 (HLA-A*02:01) on cells (T2 cells; K562A2 cells) (human). In words: T2 peptide-binding assay: T2 cells with peptide at 100 µg/mL overnight, surface HLA-A2 by flow cytometry (T2 only: 3.34E+05). On the technique in general: A flow cytometer gives signals particle by particle.

Here are results for one substance from patent US20240239864A1.

For “HPV-16 E7 p11-19 peptide (from UniProt P03129 11-19)”, the Mean Fluorescence Intensity (surface HLA-A2) stood at 492000.
